The supplement of paper PMC12455559

Assay: purified protein yield per well (BCA); higher = higher soluble expression
Outline: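 Each candidate enzyme was grown in E. coli C41(DE3) in a 2 mL autoinduction culture (100 µg/mL kanamycin; 2 h at 37 °C, then 40 h at 18 °C) and purified robotically via Ni-charged magnetic beads with SUMO protease cleavage. Purified protein yield per well was assessed using the Pierce Rapid Gold BCA kit. Readings below 25 ug (0.1 mg/mL) are beneath the detection threshold.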

Sequence: VQIGPAPTSAALNKDGTFSVSSTSVSSLSARGFGGGTIYYPTTAGQYGVIAVCPGYTGTSSSISWFARRLATHGFVTIAMNTTTTLDQPDSRATQLAAALKCVLSNSTVKSRIRSTDRGVAGHSMGGGGTLIASQSDSSLRVGIPMTPWNLSTNFSAVKVPQMIFGADGDTIAPYASHARPFYNSINKTQKAYGLLKSATHFTPNSTDQRIGRYGVAFAKRFVDGDTRYSAFLCGAEHSSYATSSKFATYLSNCPY [ESM154]
- purified protein yield per well: < 25 µg

Sequence: VQIGPNPTKASLEASSGPFTVGKFTISRPSGYAAGTVYYPTNAGAKVGVISIVPGFVSYQSSVAWWGPRLASHGFVVVTIDTNTTVDQPDSRSRQQLAALDQVVALGNNSSSPLYNKIDGTRTGVMGWSMGGGGSLISAKNRPSIKAAAPQAPWASLTSFSSLTVPTLIFSCQSDIVAPVATHANSFYNEMSRNPKQLLEKTLGDHFCMNSANPTVGLKGVAWMKRFIDGDTRYTTFACSNPNAFGFSDFRTARCS [ESM111]
- purified protein yield per well: < 25 µg

Sequence: VQNGPAPTLAALKADGPYAITSQAVAGNGFGAGTIYTPTAAGKYALVAICPGFVSAQSTMAGLAKRLATHGFVVVAISTNTLLDFPSSRATQLLAALKTVSALNTGAVAGKVDTTRQAVSGWSMGGGGTLEAAGATPGLVAAVAFAPWDTSTTKMKVNKVPAAIIGGSSDAVAPVASHSQKFYD [ESM063]
- purified protein yield per well: < 25 µg

Sequence: VQNGPNPTLDAIKADGPYAITSQAVAGNGFGAGTIYMPTAAGKYALVAICPGFVSAQSTMAGMAKRLATHGFVVVAISTNTLFDFPSSRATQLLAALKTVSALNTGAVVGKIDTTRQAVSGWSMGGGGTLEAAGATPGLVAAVAFAPWDTSTTKMKVNKVPAAIIGGSSDVIAPVASHSQKFYDAIPATTPKLLAVINGADHFFPTKASEPASYTNISWMKRFADGDTRYSSFLNGNDAALSSFSSNGPF [ESM056]
- purified protein yield per well: < 25 µg

Sequence: VQNGPTPTLADLKKDGPYAVTSQTVAGNGFGGGTVYSPNTAGKYALVAVCPGFVSAQSSMTEMGRRLATHGFVVVTIATNTPFDFPSSRATQLLAALKTVAALNTGAVAGKVDTSRQVVSGWSMGGGGTLEAAGITPGLVAGVAFAPWHTSTAKMTSLTVPVAIIGGTSDTIAPVSGHSQKFYDAIPKTTKKMLGVITGADHFFPTKASEPTSYSNISWVKRFADGDTRYSPFLTGQDAAWASFVSTGPF [ESM118]
- purified protein yield per well: < 25 µg

Sequence: VQSESPGKKYTSGPYGYTTTSLTGYSAGATIYIPRTGTPPYSGIVFMQPYTGTQAMDAAWGPFFASHGIIYVNCDSMTTLDTVDSRATQQMNAVSILKSSSKVKGKLDTSRVGVMGWSMGGGASWINSSKSGVKTAMTLAGHNLTAVSTASKGYSTRCPTAIFSGSLDTTYLGGLGQSEGVYAAIPRSVSKLHYKVATAGHMVWGGPTTASVNVGAIGLAFQKTYLDGDTRWKAYITRPADAAIWTTNLR [TEP005]
- purified protein yield per well: < 25 µg

Sequence: WLTSAASPVRARVDANRLGVGGHSMGGGGAIEAASEMPSLKASIGFEPWNGIGSWPGVRVPTMIQGAQNDNIAPVAQHSEPFYNSMTNAPEKAYAEFTGASHFFSGQAGPATTRLSVSWYKRFLDNDTRYDQFLCPGPRSPEVVEYRNTCPLTTPGGGGGTTTTTGPGTTTTTRPTTTTTAPPAQCQWWEWWCWLGWG [TEP046]
- purified protein yield per well: < 25 µg

Sequence: WTPDPEPPGPVPEPCNTDCSQGPYPTTGSVEANMGPFSISSVSVPWTVSGFGGGTIYYPSSGTTGSLGAIALIPGFLGPEWTISAWGERLASHGFIVITVATNAVTDQPDSRATQLSRALDHVIIESGSTSSPIYGMVDPNRLGAMGISMGGGGTLKLTSDRTLSAAVPMVPWYLGFNDFESIDTPTLIIGCENDTIAPVALHSIPFYNAISDDVDKAYLEMNNGSHGCVAGLTNVDILGKYAVSWMKRFIDNDQRYDQFLCGPNHTAPFSVSDYRDNCDY [DP096]
- purified protein yield per well: < 25 µg

Sequence: YILASGFVGQLVAQTPSLEALGRQGPYQVAWYTQLPSVPEFSGATLYFPANKAQDFGGVVISPGFFERQENISWWGNYLASHGFAVITFDTNELRDLPPLRADALLATIDLLRGENSRQGSAVRGKILEDSMAVMGHSMGGAAALLLANENSNEIKAAIPFNAGGLRNANFSAVAVPTLVIAGEIDRLAPVNEHAWSHYQTLT [TEP088]
- purified protein yield per well: < 25 µg

Sequence: YNPPPPPPDPGPGPGQPSDGFERGPNPSVSFLEASRGPFSIRETRVSGTVRGFGGGTIYYPTGTSGTMGAIVVIPGFVSPESSIAWWGPKLASHGFVVMTIATNSGYDQPRSRATQINSALDYLIDQNSDSRSPVRNMIDTDRLGVMGWSMGGGGTLRVASQNRLKAAVGLAPYDTISFRNVDAPTMILACESDTIAPVRNHASPFYNEIPFNTDKAFFEINGGSHTCANGGNRFNETLSRLGVSWMKR [ESM179]
- purified protein yield per well: < 25 µg
